Here are results for 7 proteins from patent US20050079494A1 (MONSANTO TECHNOLOGY, published 2005).

Data set [1] concerns the molecule itself. Put plainly: self-assembly in E. coli; 5-25% sucrose density gradient, SDS-PAGE with Coomassie staining. The method, then:
(§1) To characterize the expression of the wild-type and epitope-tagged (mature) glycinin A₁ₐB1b protein in E. coli, plasmids pMON65950, pMON65951, and pMON65952 are transformed into E. coli Origami™ (DE3) competent cells according to manufacturer's instructions (Novagen). A single colony is used to inoculate 2 ml LB medium. The culture is grown at 37° C. until a cell density corresponding to A₆₀₀=0.6 is achieved. An amount corresponding to a final concentration of 1 mM isopropyl-1-thio-β-D-galactopyranoside (IPTG) is added to induce protein expression and the culture is incubated at temperatures ranging from 20° to 37° C. at 225 rpm for time periods up to 20 hours. Cells are harvested by centrifugation at 5,000 rpm for 15 min at 4° C. The cell pellet is re-suspended in protein extraction buffer consisting of 20 mM Tris-HCl, pH 7.4, 0.4 M NaCl, 0.1% TritonX-100, 40 μl/ml Protease Inhibitor Cocktail, (stock: 1 tablet/2 ml, Boehringer Mannheim, Indianapolis, Ind.). The cells are then disrupted by sonication (Branson Sonifier 450, Branson Precision Processing, Danbury, Conn.) while maintaining at cold temperature with ice. Soluble proteins are separated from the insoluble fraction by centrifugation at 13,000 rpm for 5 minutes. […]

Data set [2] deals with the molecule itself. Briefly: self-assembly in E. coli; 5-25% sucrose density gradient, SDS-PAGE with Coomassie or anti-FLAG M2 western blot. As for the experimental part:
as §1
Background: In western blotting, separated proteins are transferred to a membrane and probed.

Data set [3] concerns the molecule itself. Put plainly: self-assembly in E. coli; sucrose density gradient, anti-FLAG western blot of fractions. The method, then: To determine if the recombinant forms of glycinin A₁ₐB1b expressed in E. coli from […], pMON65951, and pMON65952 could self-assemble to form trimers, aliquots of the soluble protein fraction from E. coli lysates are layered onto 12 ml of a 5-25% sucrose density gradient, and centrifuged at 36,000 rpm for 17.5 hours at 20° C. (Sorvall TH-641 rotor; Sorvall Ultra Pro 80 ultracentrifuge). Following centrifugation, the gradient is divided into fractions using a Labconco Autodensi-Flow instrument (Labconco, Kansas City, Mo.), and each fraction is analyzed by SDS-polyacrylamide gel electrophoresis followed either by Coomassie staining or by western blot analysis using Anti-FLAG M2 antibody (Stratagene Corporation, La Jolla, Calif.), to determine which fractions contained glycinin A₁ₐB1b. 7S and 11S soy protein fractions, as well as ovalbumin (45 kD) and aldolase (158 kD), are run as size markers on separate gradients.
This example sets forth confirmation of the protein structure from the expression of modified glycinin A₁ₐB1b clones. The assembly properties of the following modified forms of the protein (indicated by mutant ID number), each containing a different isoleucine substitution, are determined as described in Example 3. Western blot analysis of sucrose gradient fractions is carried out as in Example 3 using anti-FLAG antibody for each of mutants G1-4 through G13-2.

B1: mature form (plus additional methionine encoded by start codon) of glycinin A1aB1b encoded by pMON65950 (other)
chain: MFSSREQPQQNECQIQKLNALKPDNRIESEGGLIETWNPNNKPFQCAGVALSRCTLNRNALRRPSYTNGPQEIYIQQGKGIFGMIYPGCPSTFEEPQQPQQRGQSSRPQDRHQKIYNFREGDLIAVPTGVAWWMYNNEDTPVVAVSIIDTNSLENQLDQMPRRFYLAGNQEQEFLKYQQEQGGHQSQKGKHQQEEENEGGSILSGFTLEFLEHAFSVDKQIAKNLQGENEGEDKGAIVTVKGGLSVIKPPTDEQQQRPQEEEEEEEDEKPQCKGKDKHCQRPRGSQSKSRRNGIDETICTMRLRHNIGQTSSPDIYNPQAGSVTTATSLDFPALSWLRLSAEFGSLRKNAMFVPHYNLNANSIIYALNGRALIQVVNCNGERVFDGELQEGRVLIVPQNFVVAARSQSDNFEYVSFKTNDTPMIGTLAGANSLLNALPEEVIQHTFNLKSQQARQIKNNNPFKFLVPPQESQKRAVA
notes: Soybean seed storage protein subunit made in E. coli Origami (DE3), no FLAG tag; also called wild-type (mature) glycinin A1aB1b; native form
Consider B1, for which the binding result in data set [1] is on record as “binds”.

B2: carboxy-terminal epitope (FLAG)-tagged form of glycinin A1aB1b encoded by pMON65952 (other)
chain: MFSSREQPQQNECQIQKLNALKPDNRIESEGGLIETWNPNNKPFQCAGVALSRCTLNRNALRRPSYTNGPQEIYIQQGKGIFGMIYPGCPSTFEEPQQPQQRGQSSRPQDRHQKIYNFREGDLIAVPTGVAWWMYNNEDTPVVAVSIIDTNSLENQLDQMPRRFYLAGNQEQEFLKYQQEQGGHQSQKGKHQQEEENEGGSILSGFTLEFLEHAFSVDKQIAKNLQGENEGEDKGAIVTVKGGLSVIKPPTDEQQQRPQEEEEEEEDEKPQCKGKDKHCQRPRGSQSKSRRNGIDETICTMRLRHNIGQTSSPDIYNPQAGSVTTATSLDFPALSWLRLSAEFGSLRKNAMFVPHYNLNANSIIYALNGRALIQVVNCNGERVFDGELQEGRVLIVPQNFVVAARSQSDNFEYVSFKTNDTPMIGTLAGANSLLNALPEEVIQHTFNLKSQQARQIKNNNPFKFLVPPQESQKRAVADYKDDDDK
notes: Mature glycinin A1aB1b with C-terminal FLAG, made in E. coli; self-assembles to trimers; Template of the isoleucine mutants; also called pMON65952 protein
For B2, the binding result in data set [2] is recorded as “binds”.

B3: amino-terminal epitope (FLAG)-tagged form of glycinin A1aB1b encoded by pMON65951 (other)
chain: MDYKDDDDKFSSREQPQQNECQIQKLNALKPDNRIESEGGLIETWNPNNKPFQCAGVALSRCTLNRNALRRPSYTNGPQEIYIQQGKGIFGMIYPGCPSTFEEPQQPQQRGQSSRPQDRHQKIYNFREGDLIAVPTGVAWWMYNNEDTPVVAVSIIDTNSLENQLDQMPRRFYLAGNQEQEFLKYQQEQGGHQSQKGKHQQEEENEGGSILSGFTLEFLEHAFSVDKQIAKNLQGENEGEDKGAIVTVKGGLSVIKPPTDEQQQRPQEEEEEEEDEKPQCKGKDKHCQRPRGSQSKSRRNGIDETICTMRLRHNIGQTSSPDIYNPQAGSVTTATSLDFPALSWLRLSAEFGSLRKNAMFVPHYNLNANSIIYALNGRALIQVVNCNGERVFDGELQEGRVLIVPQNFVVAARSQSDNFEYVSFKTNDTPMIGTLAGANSLLNALPEEVIQHTFNLKSQQARQIKNNNPFKFLVPPQESQKRAVA
notes: Mature glycinin A1aB1b with start Met and N-terminal FLAG, made in E. coli; self-assembles to trimers; also called pMON65951 protein
For the protein B3, in data set [2], the binding result is recorded as “binds”.

B4: glycinin A1aB1b mutant g3-5 (other)
chain: FSSREQPQQNECQIQKLNAIKPDNRIESEGGLIETWNPNNKPFQCAGVALSRCTLNRNALRRPSYTNGPQEIYIQQGKGIFGMIYPGCPSTFEEPQQPQQRGQSSRPQDRHQKIYNFREGDIIAVPTGVAWWMYNNEDTPVVAVSIIDTNSIENQLDQMPRRFYLAGNQEQEFLKYQQEQGGHQSQKGKHQQEEENEGGSILSGFTLEFLEHAFSVDKQIAKNLQGENEGEDKGAIVTVKGGLSVIKPPTDEQQQRPQEEEEEEEDEKPQCKGKDKHCQRPRGSQSKSRRNGIDETICTMRLRHNIGQTSSPDIYNPQAGSVTTATSLDFPAISWLRLSAEFGSIRKNAMFVPHYNLNANSIIYAINGRALIQVVNCNGERVFDGELQEGRVLIVPQNFVVAARSQSDNFEYVSFKTNDTPMIGTLAGANSLLNALPEEVIQHTFNLKSQQARQIKNNNPFKFLVPPQESQKRAVADYKDDDDK
For the protein B4, the binding result in data set [3] is “no binding”.

B5: glycinin A1aB1b mutant g6-4 (other)
chain: FSSREQPQQNECQIQKLNAIKPDNRIESEGGLIETWNPNNKPFQCAGVALSRCTLNRNALRRPSYTNGPQEIYIQQGKGIFGMIYPGCPSTFEEPQQPQQRGQSSRPQDRHQKIYNFREGDLIAVPTGVAWWMYNNEDTPVVAVSIIDTNSIENQLDQMPRRFYLAGNQEQEFLKYQQEQGGHQSQKGKHQQEEENEGGSILSGFTLEFLEHAFSVDKQIAKNLQGENEGEDKGAIVTVKGGLSVIKPPTDEQQQRPQEEEEEEEDEKPQCKGKDKHCQRPRGSQSKSRRNGIDETICTMRLRHNIGQTSSPDIYNPQAGSVTTATSLDFPAISWLRLSAEFGSIRKNAMFVPHYNLNANSIIYAINGRALIQVVNCNGERVFDGELQEGRVLIVPQNFVVAARSQSDNFEYVSFKTNDTPMIGTLAGANSLLNALPEEVIQHTFNLKSQQARQIKNNNPFKFLVPPQESQKRAVADYKDDDDK
As for B5, in data set [3], the binding result was “no binding”.

B6: glycinin A1aB1b mutant g6-7 (other)
chain: FSSREQPQQNECQIQKLNAIKPDNRIESEGGLIETWNPNNKPFQCAGVALSRCTLNRNALRRPSYTNGPQEIYIQQGKGIFGMIYPGCPSTFEEPQQPQQRGQSSRPQDRHQKIYNFREGDIIAVPTGVAWWMYNNEDTPVVAVSIIDTNSLENQLDQMPRRFYLAGNQEQEFLKYQQEQGGHQSQKGKHQQEEENEGGSILSGFTLEFLEHAFSVDKQIAKNLQGENEGEDKGAIVTVKGGLSVIKPPTDEQQQRPQEEEEEEEDEKPQCKGKDKHCQRPRGSQSKSRRNGIDETICTMRLRHNIGQTSSPDIYNPQAGSVTTATSLDFPAISWLRLSAEFGSIRKNAMFVPHYNLNANSIIYAINGRALIQVVNCNGERVFDGELQEGRVLIVPQNFVVAARSQSDNFEYVSFKTNDTPMIGTLAGANSLLNALPEEVIQHTFNLKSQQARQIKNNNPFKFLVPPQESQKRAVADYKDDDDK
Consider B6, for which, in data set [3], the binding result is given as “no binding”.

B7: glycinin A1aB1b mutant g10-10 (other)
chain: FSSREQPQQNECQIQKLNALKPDNRIESEGGLIETWNPNNKPFQCAGVALSRCTLNRNAIRRPSYTNGPQEIYIQQGKGIFGMIYPGCPSTFEEPQQPQQRGQSSRPQDRHQKIYNFREGDLIAVPTGVAWWMYNNEDTPVVAVSIIDTNSLENQLDQMPRRFYLAGNQEQEFLKYQQEQGGHQSQKGKHQQEEENEGGSILSGFTLEFLEHAFSVDKQIAKNLQGENEGEDKGAIVTVKGGLSVIKPPTDEQQQRPQEEEEEEEDEKPQCKGKDKHCQRPRGSQSKSRRNGIDETICTMRIRHNIGQTSSPDIYNPQAGSVTTATSLDFPALSWIRLSAEFGSLRKNAMFVPHYNLNANSIIYALNGRALIQVVNCNGERVFDGELQEGRVIIVPQNFVVAARSQSDNFEYVSFKTNDTPMIGTLAGANSLLNALPEEVIQHTFNLKSQQARQIKNNNPFKFLVPPQESQKRAVADYKDDDDK
For B7, the binding result in data set [3] is reported as “no binding”.
